Series [1] has as its target T1, Cep3 (Cep3 1-608, full-length) (Saccharomyces cerevisiae, UniProt P40969 1-608). The experiment in a line: EMSA. (In general: In EMSA bound probe runs differently from free probe, usually more slowly.)
The target of series [2] is Cep3Δ (lacks zinc cluster) (Saccharomyces cerevisiae, UniProt P40969 48-608). The experiment in a line: EMSA.
For series [3], the target named is T1, Cep3 (Cep3 1-608, full-length). The experiment in a line: competition.

This note sets out measurements from article PMC2246632.

Changes are numbered by the printed parent chain.

T1 sequence (P40969 whole entry): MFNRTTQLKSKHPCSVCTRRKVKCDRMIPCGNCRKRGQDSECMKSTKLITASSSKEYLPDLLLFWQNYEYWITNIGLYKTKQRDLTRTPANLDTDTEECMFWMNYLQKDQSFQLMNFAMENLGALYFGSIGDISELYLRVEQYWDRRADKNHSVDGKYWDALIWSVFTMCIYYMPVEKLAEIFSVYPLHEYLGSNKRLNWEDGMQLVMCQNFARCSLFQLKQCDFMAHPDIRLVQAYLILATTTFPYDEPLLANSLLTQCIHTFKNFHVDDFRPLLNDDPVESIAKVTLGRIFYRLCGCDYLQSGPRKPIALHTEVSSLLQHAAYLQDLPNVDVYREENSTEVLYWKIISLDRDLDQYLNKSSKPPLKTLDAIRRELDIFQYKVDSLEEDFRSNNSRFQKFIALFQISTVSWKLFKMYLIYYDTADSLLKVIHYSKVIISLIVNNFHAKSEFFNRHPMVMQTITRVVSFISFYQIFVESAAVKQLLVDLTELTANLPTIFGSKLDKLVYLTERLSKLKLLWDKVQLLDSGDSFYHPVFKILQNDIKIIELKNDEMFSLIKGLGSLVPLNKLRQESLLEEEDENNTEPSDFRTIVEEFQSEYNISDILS
Cep3Δ (lacks zinc cluster), sequence (P40969 48-608, stated change not applied): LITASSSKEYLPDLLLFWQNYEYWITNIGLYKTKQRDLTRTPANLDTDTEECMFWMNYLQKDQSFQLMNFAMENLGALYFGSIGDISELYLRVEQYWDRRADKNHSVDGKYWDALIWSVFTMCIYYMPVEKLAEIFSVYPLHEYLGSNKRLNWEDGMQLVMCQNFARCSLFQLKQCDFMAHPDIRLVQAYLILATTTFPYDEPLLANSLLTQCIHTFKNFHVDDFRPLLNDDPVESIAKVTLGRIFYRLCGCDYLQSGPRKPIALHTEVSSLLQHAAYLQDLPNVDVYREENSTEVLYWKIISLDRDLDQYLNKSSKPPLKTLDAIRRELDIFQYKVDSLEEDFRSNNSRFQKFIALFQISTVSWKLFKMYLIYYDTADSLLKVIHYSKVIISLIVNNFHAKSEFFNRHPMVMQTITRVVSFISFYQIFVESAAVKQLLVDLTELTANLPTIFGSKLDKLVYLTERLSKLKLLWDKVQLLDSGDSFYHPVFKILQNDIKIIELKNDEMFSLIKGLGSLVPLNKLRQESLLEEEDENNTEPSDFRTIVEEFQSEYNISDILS

B1: native CDEIII probe (dsDNA)
DNA 1: AAATATTAGTGTATTTGATTTCCGAAAGTTAAA
DNA 2: TTTAACTTTCGGAAATCAAATACACTAATATTT
Regarding B1, the binding result in series [1] is recorded as “binds”; in series [2], “no binding”.

B2: native CDEIII competitor (dsDNA)
DNA 1: B1 DNA 1
DNA 2: B1 DNA 2
As for B2, the binding result in series [3] is given as “binds”.

B3: site 2 mutant (dsDNA)
DNA 1: B1 DNA 1 with T10A, G11A, T12C, A13T
DNA 2: B1 DNA 2 with T21A, A22G, C23T, A24T
Turning to B3, in series [3], the binding result is “binds”.

B4: site 1 mutant (dsDNA)
DNA 1: B1 DNA 1 with C22G, C23A, G24T
DNA 2: B1 DNA 2 with C10A, G11T, G12C
For the molecule B4, the binding result in series [3] is “no binding”.
